This experiment has as its target GPI (Homo sapiens, UniProt P06744). The experiment in a line: MST.

The term Kd denotes the constant that tells how readily two partners part at equilibrium. The low end stands for higher affinity, the high end for lower affinity.

B1: GPD2 (protein)
chain: ADCISEPVNREPPSREAQLLTLQNTSEFDILVIGGGATGSGCALDAVTRGLKTALVERDDFSSGTSSRSTKLIHGGVRYLQKAIMKLDIEQYRMVKEALHERANLLEIAPHLSAPLPIMLPVYKWWQLPYYWVGIKLYDLVAGSNCLKSSYVLSKSRALEHFPMLQKDKLVGAIVYYDGQHNDARMNLAIALTAARYGAATANYMEVVSLLKKTDPQTGKVRVSGARCKDVLTGQEFDVRAKCVINATGPFTDSVRKMDDKDAAAICQPSAGVHIVMPGYYSPESMGLLDPATSDGRVIFFLPWQKMTIAGTTDTPTDVTHHPIPSEEDINFILNEVRNYLSCDVEVRRGDVLAAWSGIRPLVTDPKSADTQSISRNHVVDISESGLITIAGGKWTTYRSMAEDTINAAVKTHNLKAGPSRTVGLFLQGGKDWSPTLYIRLVQDYGLESEVAQHLAATYGDKAFEVAKMASVTGKRWPIVGVRLVSEFPYIEAEVKYGIKEYACTAVDMISRRTRLAFLNVQAAEEALPRIVELMGRELNWDDYKKQEQLETARKFLYYEMGYKSRSEQLTDRSEISLLPSDIDRYKKRFHKFDADQKGFITIVDVQRVLESINVQMDENTLHEILNEVDLNKNGQVELNEFLQLMSAIQKGRVSGSRLAILMKTAEENLDRRVPIPVDRSCGGL
For the molecule B1, the affinity, expressed as Kd, was 8.59 nM.

The values are drawn from article PMC7118906 (2020).
